Measured values as given in patent US20240279630, “ISOLATED CAS13 PROTEIN AND USE THEREOF” (GUANGZHOU REFORGENE MEDICINE CO., LTD., published 2024).

Key:
CasRx (Cas13d) = assay: cell_activity
Cas13m.2 = target: T1, Cas13m.2 (metagenome); assay: cell_activity; 293T, 72 h; conditions: tags: NLS fusion
T1 chain: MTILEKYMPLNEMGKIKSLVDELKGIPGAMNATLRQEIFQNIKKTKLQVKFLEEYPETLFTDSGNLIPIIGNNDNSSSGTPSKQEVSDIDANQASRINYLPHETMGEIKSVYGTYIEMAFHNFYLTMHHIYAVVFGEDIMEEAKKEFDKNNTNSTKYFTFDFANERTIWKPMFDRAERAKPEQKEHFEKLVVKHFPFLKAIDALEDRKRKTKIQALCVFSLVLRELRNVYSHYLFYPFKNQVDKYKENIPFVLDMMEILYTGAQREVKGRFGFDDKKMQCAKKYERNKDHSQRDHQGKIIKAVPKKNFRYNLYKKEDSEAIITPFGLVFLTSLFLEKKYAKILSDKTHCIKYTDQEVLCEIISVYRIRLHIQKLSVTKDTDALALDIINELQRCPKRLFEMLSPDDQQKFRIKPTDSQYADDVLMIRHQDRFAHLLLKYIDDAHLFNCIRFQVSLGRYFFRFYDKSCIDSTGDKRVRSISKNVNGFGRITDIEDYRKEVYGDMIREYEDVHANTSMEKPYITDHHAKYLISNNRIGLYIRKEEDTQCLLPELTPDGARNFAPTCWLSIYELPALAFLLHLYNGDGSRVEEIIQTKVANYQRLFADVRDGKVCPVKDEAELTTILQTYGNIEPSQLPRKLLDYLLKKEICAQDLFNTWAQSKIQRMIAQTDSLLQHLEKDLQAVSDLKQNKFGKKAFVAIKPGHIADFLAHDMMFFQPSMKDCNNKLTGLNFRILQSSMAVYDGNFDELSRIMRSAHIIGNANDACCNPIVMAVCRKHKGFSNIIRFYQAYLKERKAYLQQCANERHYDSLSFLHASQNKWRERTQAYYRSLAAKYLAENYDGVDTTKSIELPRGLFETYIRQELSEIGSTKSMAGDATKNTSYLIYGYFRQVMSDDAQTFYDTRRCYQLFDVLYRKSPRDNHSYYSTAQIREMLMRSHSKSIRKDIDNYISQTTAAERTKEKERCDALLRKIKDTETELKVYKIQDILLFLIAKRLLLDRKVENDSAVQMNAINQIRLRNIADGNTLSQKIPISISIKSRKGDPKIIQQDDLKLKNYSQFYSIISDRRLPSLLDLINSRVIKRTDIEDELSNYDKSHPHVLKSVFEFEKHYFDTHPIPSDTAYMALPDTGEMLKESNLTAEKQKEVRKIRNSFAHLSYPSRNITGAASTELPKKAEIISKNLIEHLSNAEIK
Procedure: (§1) The 293T cells were transfected with the PTBP1-targeting plasmids of Cas13 m.2, Cas13 m.3, Cas13 m.5, CasRfg.2 and CasRx at 800 ng in a 24-well plate. The negative control group was transfected with the CasRx-BpiI plasmid.
(§2) The transfection method was as follows: [0276] 1) The cells were digested by trypsin (0.25% of Trypsin, EDTA, Thermo, 11058021), counted, and plated into a 24-well plates at 2×10⁵ cells according to 500 uL per well. [0277] 2) For each transfected sample, the complex was prepared according to the following steps: [0278] a. each well of the 24-well plate into which the cells were added, were added with 50 uL of serum-free Opti-MEM I (Thermo, 25200056) reduced serum medium for dilution of the aforementioned plasmid DNA, and mixed gently; [0279] b. it was gently mixed with Lipofectamine 2000 (Thermo, 11668019) before use, and then 1.8 uL of the Lipofectamine 2000 was diluted in each well, i.e., in 50 uL of the Opti-MEM I medium. It was incubated at room temperature for 5 minutes. Note: it was continued to perform step c within 25 minutes; [0280] c. after incubation for 5 minutes, the diluted DNA was combined with the diluted Lipofectamine 2000. They were gently mixed and incubated at room temperature for 20 minutes (the solution might be cloudy visually). Note: the complex was stabilized at room temperature for 6 hours.
(§3) The complex was added into the cells and mixed, and then detected with a QuantStudio™ 5 Real-Time PCR System, 96-well after 72 h.

Cas13m.5 = target: T2, Cas13m.5 (Bacteroidetes bacterium); assay: cell_activity; 293T, 72 h; conditions: tags: NLS fusion
T2 chain: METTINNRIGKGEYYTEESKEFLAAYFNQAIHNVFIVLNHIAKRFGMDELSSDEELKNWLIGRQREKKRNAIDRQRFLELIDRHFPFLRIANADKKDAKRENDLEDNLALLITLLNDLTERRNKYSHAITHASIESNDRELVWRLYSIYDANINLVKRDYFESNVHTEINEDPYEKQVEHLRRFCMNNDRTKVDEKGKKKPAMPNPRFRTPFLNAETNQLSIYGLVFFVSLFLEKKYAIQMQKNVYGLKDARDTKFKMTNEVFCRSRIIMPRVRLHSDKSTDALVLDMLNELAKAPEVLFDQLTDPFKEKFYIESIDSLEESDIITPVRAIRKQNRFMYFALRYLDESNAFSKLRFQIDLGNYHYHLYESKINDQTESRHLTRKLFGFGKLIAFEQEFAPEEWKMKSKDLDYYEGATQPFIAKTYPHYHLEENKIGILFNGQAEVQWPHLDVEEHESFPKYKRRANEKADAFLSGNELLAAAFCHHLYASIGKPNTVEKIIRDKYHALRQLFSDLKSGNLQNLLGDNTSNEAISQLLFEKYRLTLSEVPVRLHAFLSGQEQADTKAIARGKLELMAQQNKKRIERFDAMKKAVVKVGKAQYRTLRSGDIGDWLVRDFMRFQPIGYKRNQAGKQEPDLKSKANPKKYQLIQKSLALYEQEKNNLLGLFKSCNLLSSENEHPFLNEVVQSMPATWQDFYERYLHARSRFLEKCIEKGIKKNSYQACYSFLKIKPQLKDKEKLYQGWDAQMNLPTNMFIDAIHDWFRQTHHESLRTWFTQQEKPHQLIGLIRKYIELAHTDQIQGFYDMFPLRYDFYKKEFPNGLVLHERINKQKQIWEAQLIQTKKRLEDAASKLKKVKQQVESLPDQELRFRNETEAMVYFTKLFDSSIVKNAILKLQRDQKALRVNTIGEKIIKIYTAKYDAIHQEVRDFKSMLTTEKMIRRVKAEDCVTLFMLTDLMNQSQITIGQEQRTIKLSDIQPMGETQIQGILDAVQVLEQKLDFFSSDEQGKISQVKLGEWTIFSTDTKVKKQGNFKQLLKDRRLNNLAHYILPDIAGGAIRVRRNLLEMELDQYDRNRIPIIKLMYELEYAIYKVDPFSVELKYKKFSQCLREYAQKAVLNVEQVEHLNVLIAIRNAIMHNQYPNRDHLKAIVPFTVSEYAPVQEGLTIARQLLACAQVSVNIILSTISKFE
Procedure: as §1, §2, §3

Cas13m.3 = target: T3, Cas13m.3 (uncultured Bacteroidetes bacterium); assay: cell_activity; 293T, 72 h; conditions: tags: NLS fusion
T3 chain: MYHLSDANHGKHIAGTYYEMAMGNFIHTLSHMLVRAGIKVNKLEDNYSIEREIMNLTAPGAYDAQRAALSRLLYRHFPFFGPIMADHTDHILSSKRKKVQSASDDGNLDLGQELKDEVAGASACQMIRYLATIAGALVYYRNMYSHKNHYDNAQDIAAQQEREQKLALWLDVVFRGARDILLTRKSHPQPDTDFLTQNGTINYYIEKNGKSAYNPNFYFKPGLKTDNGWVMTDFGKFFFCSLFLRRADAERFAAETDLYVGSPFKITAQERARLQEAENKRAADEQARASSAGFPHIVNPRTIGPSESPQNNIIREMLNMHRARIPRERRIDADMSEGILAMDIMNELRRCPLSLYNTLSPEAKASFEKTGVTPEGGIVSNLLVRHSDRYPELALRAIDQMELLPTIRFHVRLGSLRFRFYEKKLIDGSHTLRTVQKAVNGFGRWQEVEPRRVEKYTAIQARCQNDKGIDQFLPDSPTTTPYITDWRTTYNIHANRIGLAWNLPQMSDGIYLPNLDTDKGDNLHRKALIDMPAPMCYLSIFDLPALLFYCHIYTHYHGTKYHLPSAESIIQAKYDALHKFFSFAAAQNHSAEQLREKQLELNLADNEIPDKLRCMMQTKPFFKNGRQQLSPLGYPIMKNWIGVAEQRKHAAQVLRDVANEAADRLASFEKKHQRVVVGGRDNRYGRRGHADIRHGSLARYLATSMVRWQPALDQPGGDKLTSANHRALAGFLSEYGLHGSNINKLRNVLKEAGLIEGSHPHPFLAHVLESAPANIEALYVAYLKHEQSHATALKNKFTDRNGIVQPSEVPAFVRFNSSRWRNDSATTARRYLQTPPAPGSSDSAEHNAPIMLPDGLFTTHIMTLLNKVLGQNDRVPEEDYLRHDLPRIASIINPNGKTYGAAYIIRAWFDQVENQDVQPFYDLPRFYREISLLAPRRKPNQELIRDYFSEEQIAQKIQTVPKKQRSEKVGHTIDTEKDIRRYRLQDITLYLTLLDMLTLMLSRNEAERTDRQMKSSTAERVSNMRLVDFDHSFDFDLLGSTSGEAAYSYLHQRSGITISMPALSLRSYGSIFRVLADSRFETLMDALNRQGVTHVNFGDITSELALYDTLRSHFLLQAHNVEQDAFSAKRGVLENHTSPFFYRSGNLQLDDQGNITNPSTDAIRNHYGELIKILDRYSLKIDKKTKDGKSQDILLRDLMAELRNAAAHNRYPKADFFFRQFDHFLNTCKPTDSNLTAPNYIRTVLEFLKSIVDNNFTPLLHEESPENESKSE
Procedure: as §1, §2, §3

CasRfg.2 (Cas13d) = target: T4, CasRfg.2 (Cas13d) (metagenome); assay: cell_activity; 293T, 72 h; conditions: tags: NLS fusion
T4 chain: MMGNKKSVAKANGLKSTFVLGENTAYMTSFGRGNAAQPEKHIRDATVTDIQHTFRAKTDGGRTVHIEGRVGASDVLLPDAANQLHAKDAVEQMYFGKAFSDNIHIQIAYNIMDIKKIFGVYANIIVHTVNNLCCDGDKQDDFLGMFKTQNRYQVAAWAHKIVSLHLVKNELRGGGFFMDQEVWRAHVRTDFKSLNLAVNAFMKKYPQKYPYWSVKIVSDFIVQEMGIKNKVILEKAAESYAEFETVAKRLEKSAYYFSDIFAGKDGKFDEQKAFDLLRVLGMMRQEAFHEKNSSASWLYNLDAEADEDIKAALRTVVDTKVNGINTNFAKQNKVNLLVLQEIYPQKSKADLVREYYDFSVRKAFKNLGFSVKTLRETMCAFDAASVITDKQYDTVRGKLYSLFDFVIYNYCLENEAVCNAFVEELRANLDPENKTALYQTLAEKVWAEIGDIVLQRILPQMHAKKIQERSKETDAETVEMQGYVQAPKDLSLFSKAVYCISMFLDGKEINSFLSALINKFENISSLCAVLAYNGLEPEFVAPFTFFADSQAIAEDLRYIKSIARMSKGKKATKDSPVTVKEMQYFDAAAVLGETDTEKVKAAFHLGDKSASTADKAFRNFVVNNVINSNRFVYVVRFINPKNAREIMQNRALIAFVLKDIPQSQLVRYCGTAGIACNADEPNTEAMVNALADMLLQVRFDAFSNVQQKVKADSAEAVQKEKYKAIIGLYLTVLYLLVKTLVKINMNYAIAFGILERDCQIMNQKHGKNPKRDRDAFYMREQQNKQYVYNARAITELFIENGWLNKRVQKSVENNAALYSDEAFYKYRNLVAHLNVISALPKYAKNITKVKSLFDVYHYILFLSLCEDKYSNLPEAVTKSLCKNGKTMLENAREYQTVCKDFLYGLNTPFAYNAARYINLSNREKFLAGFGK
Procedure: as §1, §2, §3

GAAGACAAAGAGGGUCGUGG / CCACGACCCUCUUUGUCUUC
activity (relative mRNA level) (CasRx (Cas13d); 293T-AQp1, 72 h): 0.05

AGGGCAGAACCGAUGCUGAUGAAGAC / GUCUUCAUCAGCAUCGGUUCUGCCCU
activity (relative mRNA level) (CasRx (Cas13d); control 1.00): 0.03

GUGGUUGGAGAACUGGAUGUAGAUGGGCUG / CAGCCCAUCUACAUCCAGUUCUCCAACCAC [PTBP1 gRNA CasRx (guide part only) ; PTBP1 mRNA site]
activity (relative mRNA level) (CasRx (Cas13d); 293T, 72 h, 0.59 in Table 10): 0.6

B1: PTBP1 gRNA Cas13m.2 ; PTBP1 mRNA site (ssRNA ; ssRNA)
RNA 1: GUGGUUGGAGAACUGGAUGUAGAUGGGCUGGUUGUAGAUGACCUCGUUUUGGAGGGGAAACACAAC
RNA 2: CAGCCCAUCUACAUCCAGUUCUCCAACCAC
activity (Cas13m.2): 0.49 relative mRNA level

B2: PTBP1 gRNA Cas13m.5 ; PTBP1 mRNA site (ssRNA ; ssRNA)
RNA 1: GUGGUUGGAGAACUGGAUGUAGAUGGGCUGGUUGUGUGUGCCUUUCAAAUUGAAGGCGUUCCCAAC
RNA 2: B1 RNA 2
activity (Cas13m.5): 0.7 relative mRNA level

B3: PTBP1 gRNA Cas13m.3 ; PTBP1 mRNA site (ssRNA ; ssRNA)
RNA 1: GUGGUUGGAGAACUGGAUGUAGAUGGGCUGGUUGUAGAAGCCGUUCAUUCGGGACGGUAUGACAAC
RNA 2: B1 RNA 2
activity (Cas13m.3): 0.46 relative mRNA level

B4: PTBP1 gRNA CasRfg.2 ; PTBP1 mRNA site (ssRNA ; ssRNA)
RNA 1: GGUUUUACACCCGUGUAAAACUACACAGUUCUAAAACGUGGUUGGAGAACUGGAUGUAGAUGGGCUG
RNA 2: B1 RNA 2
activity (CasRfg.2 (Cas13d)): 0.78 relative mRNA level
